Residues, ends and D or L forms follow the SMILES beside them.
Assays:
[1] = target: T1, phosphorylated rhodopsin (Meta II) (Bos taurus, UniProt P02699); test: Extra Meta II assay: stabilization of Meta II by peptide, UV-visible absorption; type: binding, bovine; conditions: 10 μM ROS-P, 100 mM HEPES pH 8.0, 0 °C, 380-nm absorbance
[2] = target: phosphorylated opsin (OpsP) (Bos taurus, UniProt P02699); type: binding, bovine; conditions: 1 μM arrestin A366NBD + 2 μM OpsP, 50 mM HEPES pH 7.0, 22 °C
phosphorylated opsin (OpsP), sequence (P02699 whole entry): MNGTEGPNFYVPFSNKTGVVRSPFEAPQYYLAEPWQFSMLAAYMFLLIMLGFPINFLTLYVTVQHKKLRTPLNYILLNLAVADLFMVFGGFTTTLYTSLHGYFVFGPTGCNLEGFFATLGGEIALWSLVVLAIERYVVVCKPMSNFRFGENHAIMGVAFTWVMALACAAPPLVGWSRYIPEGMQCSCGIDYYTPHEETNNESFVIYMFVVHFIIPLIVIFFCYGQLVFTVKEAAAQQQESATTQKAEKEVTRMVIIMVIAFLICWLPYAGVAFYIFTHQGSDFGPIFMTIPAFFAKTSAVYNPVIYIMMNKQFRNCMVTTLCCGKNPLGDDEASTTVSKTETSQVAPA

[3] = target: T1, phosphorylated rhodopsin (Meta II); conditions: 380-nm-absorbing Meta II; cited from earlier work
[4] = target: phosphorylated opsin (OpsP) in membranes (bovine, UniProt P02699 1-348, phosphorylated by native rhodopsin kinase (sites not given)); test: co-sedimentation
phosphorylated opsin (OpsP) in membranes, sequence (P02699 whole entry): as above

T1 sequence (P02699 whole entry): as above

Molecule	Kd [4] [µM]	also measured
QRMHLRQYELL [GsαCT]	–	Stabilization of Meta II / Extra Meta II formation (in words) [1]: did not stabilize Meta II; Competition for arrestin binding to phosphorylated opsin (in words) [2]: showed no competition for arrestin binding to phosphorylated opsin
CC[C@H](C)[C@H](NC(=O)[C@H](CC(=O)O)NC(=O)[C@H](CCC(=O)O)NC(=O)[C@H](CCC(N)=O)NC(=O)CNC(=O)[C@@H](N)Cc1ccc(O)cc1)C(=O)N[C@@H](CC(=O)O)C(=O)N[C@H](C(=O)N[C@@H](CCSC)C(=O)NCC(=O)N[C@@H](CC(C)C)C(=O)O)C(C)C [ArrFL-1] (H-YGQEDIDVMGL-OH)	–	Stabilization of Meta II / Extra Meta II formation (in words) [1]: stabilized the 380-nm-absorbing Meta II species over Meta I
arrestin: full-length rod photoreceptor arrestin (protein, NBD label on the single cysteine A366C) MKANKPAPNHVIFKKISRDKSVTIYLGKRDYIDHVERVEPVDGVVLVDPELVKGKRVYVSLTAAFRYGQEDIDVMGLSFRRDLYFSQVQVFPPVGASGATTRLQESLIKKLGANTYPFLLTFPDYLPSSVMLQPAPQDVGKSAGVDFEIKAFATHSTDVEEDKIPKKSSVRLLIRKVQHAPRDMGPQPRAEASFQFFMSDKPLRLAVSLSKEIYYHGEPIPVTVAVTNSTEKTVKKIKVLVEQVTNVVLYSSDYYIKTVAAEEAQEKVPPNSSLTKTLTLVPLLANNRERRGIALDGKIKHEDTNLASSTIIKEGIDKTVMGILVSYQIKVKLTVSGLLGELTSSEVATEVPFRLMHPQPEDPDTCKESFQDENFVFEEFARQNLKDAGEYKEEKTDQEAAMDE	–	Stabilization of Meta II species over Meta I [3]: stabilized the 380-nm-absorbing Meta II species over Meta I
YGQEDIDVMGL [ArrFL-1, peptide analogue of the finger loop of rod photoreceptor arrestin]	1700	–
YGREDLDVLGL [ArrFL-2/3, finger loop peptide of beta-arrestin-1 and beta-arrestin-2]	2400	–
IKENLKDCGLF [GtαCT, wild-type Gtα C-terminal peptide]	880	–
ILENLKDCGLF [GtαCT-HA, high-affinity version of the Gtα C-terminal peptide]	320	–
